Experimental data from patent US7871782B2, “Specific binding members against synaptophysin” (The University Court of the University of Aberdeen, priority 2004, dated 2011).

B1: FITC-C1-3 scAb: C1-3 scAb labelled with FITC (conjugate)
scFv: MAEVQLLESGGGLVQPGGSLRLSCAASGFTFSSYAMSWVRQAPGKGLEWVSTIAASGPSTGYADSVKGRFTISRDNSKNTLYLQMNSLRAEDTAVYYCAKTTAKFDYWGQGTLVTVSSGGGGSGGGGSGGGGSTDIQMTQSPSSLSASVGDRVTITCRASQSISSYLNWYQQKPGKAPKLLIYSASRLQSGVPSRFNGSGSGTDFTLTISSLQPEDFATYYCQQLQRKPTTFGQGTKVEIKRGAAAPSVFIFPPSDEQLKSGTASVVCLLNNFYPREAKVQWKVDNALQSGNSQESVTEQDSKDSTYSLSSTLTLSKADYEKHKVYACEVTHQGLSSPVTKSFNRGESHHHHHH

Key:
human HSCs [1] = experiment: HSC viability with gliotoxin and C1-3-gliotoxin conjugate; format: cell-based; conditions: 1.5 uM gliotoxin; 10 ug C1-3-gliotoxin conjugate in 500 ul medium; FIG. 14
Description: HSC viability. Human HSCs in 24 well plate culture were treated with 500 ul medium containing either DMSO vehicle; 1.5 uM gliotoxin (750 pmoles); 20 ul C1-3 scAb at 1 mg/ml (20 ug C1-3 scAb); or 20 ul C1-3-gliotoxin conjugate at 0.5 mg/ml (10 ug C1-3 scAb-250 pmoles C1-3 scAb*/1000 pmoles gliotoxidn). *0.5 mg C1-3 protein/ml stock=12.5 uM=12.5 nmoles/ml=12.5 pmol/ul

HSCs = experiment: Effect of scAb incubation on HSC viability (attachment, protein assay); format: cell-based, human; conditions: 3 hours incubation, 5 μg scAb or indicated chemical, FIG. 12
Description: Effect of scAb incubation on HSC viability. HSCs seeded into 24 well plates were incubated in 0.3 mls culture medium containing 5 μg scAb or the indicated-chemical. Cells were incubated for 3 hours prior to removal of medium and washing with 1×PBS. Attachment (as a measure of viability) was determined by a direct protein assay in the culture wells.

human HSC = experiment: FACS analysis of human HSC cultures; format: cell-based; conditions: co-staining under native conditions prior to fixing, 1 hour 37° C., FIG. 10
Description: FACS analysis of human HSC incubated without (UPPER PANEL) or with (LOWER PANEL) primary antibodies—i.e. FITC-C13 scAb (FITC) and a mouse monoclonal antibody to α-smooth muscle actin (αsma-APC). Anti-α-smooth muscle actin antibody was detected using a biotin conjugated secondary antibody followed by fluorophore-streptavidin conjugate incubation as outlined in the Methods section. Figures represent the percentage of cells in each quadrant. Data are typical of 3 separate cell preparations.
FITC-C1-3 scAb was added to culture medium (200 μg/10 mls) and incubated with a confluent (10 cm diameter dish) culture of HSCs for 1 hour at 37° C. The medium was then removed and the cells were washed in PBS. The cells were then detached from the culture substratum non-enzymatically using cell dissociation solution (Sigma, Poole, UK), pelleted by centrifugation and fixed/permeabilised using BD cytofix/cytoperm (BD Biosciences, Oxford, UK). After 15 minutes, the cells were washed in 0.5 mls 1× wash/perm buffer (BD Biosciences, Oxford, UK) and incubated with a mouse anti-α-smooth muscle actin monoclonal antibody (Sigma, Poole, UK) diluted in 1× wash/perm buffer. […] The cells were analysed by flow cytometry (LSR I, BD, Oxford, UK). […]

COS-7 cells = experiment: Fluorescence binding to cells; format: cell-based
human HSCs [2] = experiment: Uptake of scAb and conjugates by human HSCs in culture (Western blot of medium); format: cell-based; conditions: 5 μg scAb in 0.3 mls medium, FIG. 11
Description: Uptake of C1-3 scAb and C1-3-conjugates by human HSCs in culture. HSCs seeded into 24 well plates were incubated in 0.3 mls culture medium containing 5 μg scAb. Samples of medium were taken at the indicated times and subjected to Western blotting to detect scAb using HRP-conjugated anti-human Cκ light chain antibody (UPPER PANEL) and serum albumin (LOWER PANEL) as a loading control. Results typical of 4 separate experiments.

[3] = test system: hepatic stellate cell and hepatocytes co-cultured; format: cell-based, human
Description: For co-culture experiments, hepatic stellate cells were seeded into hepatocytes cultures (1×10^3 cells per well) and cultured for 24 h prior to experimentation. The C1-3 or FITC-C1-3 scAb was incubated as outlined for pure hepatic stellate cell cultures except that after 1 hour incubation and washing, the cells were harvested by trypsinisation and centrifugation at 1000 rpm for 5 min. The cell pellet was then resuspended in 0.4% formaldehyde/10^6 cells, applied onto glass slides by cytocentrifugation and mounted with Vectashield containing DAPI. Slides were viewed by fluorescence microscopy as before.

human hepatocytes = experiment: Fluorescence microscopy of FITC-labelled scAb with cells; format: cell-based
Description: (§1) FITC-C1-3 scAb was tested for its ability to interact with hepatic stellate cells in culture by fluorescence microscopy. Human hepatic stellate cells were seeded (1×10^3 cells per chamber) on chamber slides (Nunclon, Naperville) in complete medium prior to experimentation. Cells were washed twice in phosphate buffered saline (PBS) and incubated in 500 μl Hepes/HBSS buffer (0.14M NaCl, 5.4 mM KCl, 0.34 mM Na2HPO4, 0.94 mm KH2PO4, 5.6 mM glucose, 1 mM CaCl2, 6 mM HEPES, 4 mM NaHCO3 pH7.4) containing 10 μg scAb or FITC-C1-3 scAb for 1 h at room temperature in the dark. The cells were then washed in PBS and mounted with Vectashield mounting medium (Vector laboratories, Burlingame, Calif.) containing 4′,6′ diamindino-2 phenylindole (DAPI) to stain cell nuclei and coverslips applied. Florescence microscopy was carried out using a Zeiss Axeola II microscope with a Photometrics Sensis camera, and data captured using the Smart Capture programme. Human hepatocytes (UK Human Tissue Bank) were originally cultured in a collagen-coated 24 well plate (1×10^5/well) and maintained in William's medium E supplemented with 80 units/ml penicillin and 80 μg/ml streptomycin.

[4] = test system: human hepatic stellate cells; experiment: as above; format: cell-based
Description: as §1

HepG2 cells = experiment: Fluorescence binding to cells; format: cell-based
human HSCs [5] = experiment: Fluorescence microscopy without fixation: effect of peptides and monensin on FITC-C1-3 scAb binding; format: cell-based; conditions: 10 μg scAb, 1 hour, no fixation, FIG. 13
Description: Effect of synaptophysin peptides and monensin on FITC-C1-3 scAb binding to human HSCs. Human HSCs seeded into 24 well plates were washed and incubated in 500 μl Hepes/HBSS per well for 1 hour containing either: 10 μg C1-3 scAb; 10 μg FITC-C1-3 scAb; 10 μg FITC-C1-3 scAb and 0.25 nmoles of the target peptide; 10 μg FITC-C1-3 scAb and 2.5 nmoles of the target peptide; 10 μg FITC-C1-3 scAb and 25 nmoles of the target peptide; 10 μg FITC-C1-3 scAb and 25 nmoles of the target peptide P1; 10 μg FITC-C1-3 scAb and 2.5 μM monensin; 10 μg FITC-C1-3 scAb and 15 μM monensin; 10 μg FITC-3A8 scAb (scAb raised to microcystin and not expected to bind to HSCs). Cells incubated with monensin were preincubated for 10 minutes. Just prior to addition of scAb, the medium was changed and cells were re-dosed with monensin. […] Bar=μm. Monen=monensin; P1=the […] peptide (SEQ ID NO 27); P2=the target peptide.
HSCs seeded into 24 well plates were washed with Hepes/HBSS and then incubated at 37° C. in 500 μl/well Hepes/HBSS containing 10 μg scAb with or without additional compounds. After 1 hour, the cells were washed 3 times with 500 μl Hepes/HBSS. Cells were analysed using an Axiovert 100 microscope (Zeiss, Germany) using filter set #9 (BP 450-490 nm; LP 515 nm).

| Molecule | killing of human HSCs (human HSCs [1]) | toxicity to HSCs (attachment as measure of viability) (HSCs) | binding to α-smooth muscle actin positive human HSCs (FACS) (human HSC) | fluorescence binding to COS-7 cells (COS-7 cells) | association with HSCs: change of culture medium concentration of scAb (human HSCs [2]) | green fluorescence in hepatic stellate cell/hepatocyte co-cultures [3] | green fluorescence associated with human hepatocytes (human hepatocytes) | green fluorescence associated with hepatic stellate cells ([4]; 10 μg scAb, 1 h, room temperature) | location of fluorescence in hepatic stellate cells ([4]; mounting medium with DAPI) | fluorescence binding to HepG2 cells (HepG2 cells) | association of FITC-labelled scAb with HSCs (human HSCs [5]) |
| --- | --- | --- | --- | --- | --- | --- | --- | --- | --- | --- | --- |
| CN1C(=O)[C@]23CC4=CC=C[C@H](O)[C@H]4N2C(=O)[C@@]1(CO)SS3 [gliotoxin] | killed human HSCs | kill HSCs |  |  |  |  |  |  |  |  |  |
| B1 |  |  | all the cells bound C1-3 scAb | not detected | reduction in culture medium concentrations | Fluorescence was observed on stellate cells whilst hepatocytes consistently failed to display detectable levels of associated green fluorescence | no associated green fluorescence | fluorescence was associated with hepatic stellate cells | fluorescence was located around the nuclear and cell membranes | not detected | associated with HSCs |
